Patent US20240252589A1, “AGENT FOR ENHANCING PHAGOCYTOSIS ABILITY OF NEUTROPHILS” (priority 2018, published 2024)

B1: HRG: Human plasma-derived histidine-rich glycoprotein, about 80 kDa, purified by Ni-NTA affinity and Mono Q chromatography (protein)
chain: VSPTDCSAVEPEAEKALDLINKRRRDGYLFQLLRIADAHLDRVENTTVYYLVLDVQESDCSVLSRKYWNDCEPPDSRRPSEIVIGQCKVIATRHSHESQDLRVIDFNCTTSSVSSALANTKDSPVLIDFFEDTERYRKQANKALEKYKEENDDFASFRVDRIERVARVRGGEGTGYFVDFSVRNCPRHHFPRHPNVFGFCRADLFYDVEALDLESPKNLVINCEVFDPQEHENINGVPPHLGHPFHWGGHERSSTTKPPFKPHGSRDHHHPHKPHEHGPPPPPDERDHSHGPPLPQGPPPLLPMSCSSCQHATFGTNGAQRHSHNNNSSDLHPHKHHSHEQHPHGHHPHAHHPHEHDTHRQHPHGHHPHGHHPHGHHPHGHHPHGHHPHCHDFQDYGPCDPPPHNQGHCCHGHGPPPGHLRRRGPGKGPRPFHCRQIGSVYRLPPLRKGEVLPLPEANFPSFPLPHHKHPLKPDNQPFPQSVSESCPGKFKSGFPQVSMFFTHTFPK
B2: rHRG: Recombinant human HRG expressed in CHO cells, purified on Ni-NTA agarose (protein)
chain: EFRMGKALIAALLLITLQYSCAVSPTDCSAVEPEAEKALDLINKRRRDGYLFQLLRIADAHLDRVENTTVYYLVLDVQESDCSVLSRKYWNDCEPPDSRRPSEIVIGQCKVIATRHSHESQDLRVIDFNCTTSSVSSALANTKDSPVLIDFFEDTERYRKQANKALEKYKEENDDFASFRVDRIERVARVRGGEGTGYFVDFSVRNCPRHHFPRHPNVFGFCRADLFYDVEALDLESPKNLVINCEVFDPQEHENINGVPPHLGHPFHWGGHERSSTTKPPFKPHGSRDHHHPHKPHEHGPPPPPDERDHSHGPPLPQGPPPLLPMSCSSCQHATFGTNGAQRHSHNNNSSDLHPHKHHSHEQHPHGHHPHAHHPHEHDTHRQHPHGHHPHGHHPHGHHPHGHHPHGHHPHCHDFQDYGPCDPPPHNQGHCCHGHGPPPGHLRRRGPGKGPRPFHCRQIGSVYRLPPLRKGEVLPLPEANFPSFPLPHHKHPLKPDNQPFPQSVSESCPGKFKSGFPQVSMFFTHTFPKPLE
modifications: misc_feature 1..1596 EcoR1-HRG-Xho1
notes: Recombinant human HRG expressed in CHO cells, purified on Ni-NTA agarose

Legend:
neutrophils [1] = experiment: Opsonin effect 2: phagocytosis by neutrophils of pretreated Staphylococcus aureus; format: cell-based, Human
Method: (§1) Escherichia coli (pHrodo™ Escherichia coli) or Staphylococcus aureus (pHrdo™ Staphylococcus aureus) was pre-incubated with human serum albumin (HSA, 1.0 μM), hHRG (1.0 μM), or 5-fold-diluted human serum (1/5 Serum) at 37° C. for 15 min, and then Escherichia coli or Staphylococcus aureus was washed twice with HBSS. […] A hHRG solution was added to a neutrophil solution. The mixture was dispensed to a 96-well plate and incubated under CO2 at 37° C. for 30 min. Then, the Escherichia coli or Staphylococcus aureus pretreated with the above-mentioned HSA or HRG solution, or 5-fold-diluted human serum was added, and the resulting mixture was dispensed to the 96-well plate and incubated under CO2 at 37° C. for 120 min. The final concentration of the cell liquid at this time was 2×10^4 cells/well (2×10^5 cells/mL), the final concentration of HSA or HRG was […], and the final concentration of […] was 25 μg/well (250 μg/mL). Through use of InCell Analyzer (GE Healthcare), the amounts of red-colored pHrodo by neutrophils' uptake were analyzed by image analysis and quantification to observe the phagocytosis ability of neutrophils.

Human neutrophils [2] = experiment: Phagocytosis ability of neutrophils against Staphylococcus aureus (pHrodo indicator, InCell Analyzer); format: cell-based
Method: (§2) Phagocytosis ability of neutrophils against Escherichia coli (a gram-negative bacterium) or Staphylococcus aureus (a gram-positive bacterium) was measured with a pHrodo™ indicator. Phagosomes within neutrophils can be fluorescence-stained with a pHrodo™ staining reagent to measure their phagocytosis ability. Human neutrophils were separated from the whole blood using a hemocyte separation solution Polymorphprep™, and the cell solution was washed with PBS to perform suspension. The numbers of cells were adjusted, and the cells were stained with Hoechst33342 (nucleus staining: blue) and calcein-AM (cytoplasm: green) by incubation under CO2 at 37° C. for 15 min. Neutrophil solutions were resuspended in HBSS, and the numbers of cells were adjusted (2×10^6 cells/mL).
(§3) To the neutrophil liquids at the cell concentration, hHRG solutions were added, and the mixtures were dispensed to a 96-well plate, allowing incubation under CO2 at 37° C. for 30 min. Then, Escherichia coli (pHrodo™ Escherichia coli) or Staphylococcus aureus (pHrodo™ Staphylococcus aureus) was added to the 96-well plate, and incubated under CO2 at 37° C. In this Example, the final concentration of the cell liquids was 2×10^4 cells/well (2×10^5 cells/mL), the final concentrations of HRG were from 0.01 μM to 3.0 μM, and the final concentration of pHrodo™ Escherichia coli or pHrodo™ Staphylococcus aureus was 25 μg/well (250 μg/mL). The incubation of Escherichia coli was for 60 min, and that of Staphylococcus aureus was for 120 min.
Through use of InCell Analyzer (GE Healthcare), the amounts of red-colored pHrodo by neutrophils' uptake were analyzed by image analysis and quantification to observe the phagocytosis ability of neutrophils. The analysis results of phagocytosis ability of neutrophils against Escherichia coli and Staphylococcus aureus are shown in FIG. 4A and FIG. 4B.
To the neutrophil liquids at the cell concentration (2×10^6 cells/mL), each solution of hHRG, rHRG, or HRG-Fc was added to observe the phagocytosis ability of neutrophils against Escherichia coli or Staphylococcus aureus by the same procedure as Experimental Example 1 (HRG final concentrations of from 0.1 μM to 3.0 μM). As an observation experiment, phagocytosis ability of neutrophils against Escherichia coli or Staphylococcus aureus was observed, when each of different anti-HRG antibodies or control antibodies was added. The amounts of red-colored pHrodo by neutrophils' uptake can be imaged and quantified to observe the phagocytosis ability of neutrophils. […]

Human neutrophils [3] = experiment: Phagocytosis ability of neutrophils against Escherichia coli (pHrodo indicator, InCell Analyzer); format: cell-based
Method: as §2, §3
Through use of InCell Analyzer (GE Healthcare), the amounts of red-colored pHrodo by neutrophils' uptake were analyzed by image analysis and quantification to observe the phagocytosis ability of neutrophils.
To the neutrophil liquids at the cell concentration (2×10^6 cells/mL), each solution of hHRG, rHRG, or HRG-Fc was added to observe the phagocytosis ability of neutrophils against Escherichia coli or Staphylococcus aureus by the same procedure as Experimental Example 1 (HRG final concentrations of from 0.1 μM to 3.0 μM). […] The amounts of red-colored pHrodo by neutrophils' uptake can be imaged and quantified to observe the phagocytosis ability of neutrophils.

neutrophils [4] = experiment: Opsonin effect 2: phagocytosis by neutrophils of pretreated Escherichia coli; format: cell-based, Human
Method: as §1

neutrophils [5] = experiment: Opsonin effect 1: phagocytosis by neutrophils of pHrodo Red Zymosan treated with serum containing HRG or no HRG; format: cell-based, Human; details: Zymosan 500 μg/mL; HRG 1.0 μM; 120 min; compared with serum containing no HRG
Method: In this Experimental Example, the effect of HRG on opsonization (Op) was observed using serum containing HRG or no HRG. Healthy human serum was used for opsonization (Op). In this Experimental Example, the “serum containing HRG” refers to untreated, healthy human serum. In this Experimental Example, the “serum containing no HRG” refers to human serum in which a Ni-NTA agarose gel is added to human serum to adsorb HRG in the serum, and then the Ni-NTA agarose gel is removed by centrifugation.
Zymosan (pHrodo™ Red Zymosan, manufactured by Thermo Fisher Scientific Inc.) was blended with serum containing HRG or no HRG at 4° C., and then the mixture was stirred well by ultrasonic homogenization. After the stirring, centrifugation was performed at 4° C. and 15,000 rpm for 15 min. The supernatant was discarded and the sediment was suspended in HBSS. This washing procedure was repeated twice, and then Zymosan was suspended in HBSS. The concentration of Zymosan at this time of point was 1.0 mg/mL.
To the neutrophil liquids, hHRG solutions were added, and the mixtures were dispensed to a 96-well plate, allowing incubation under CO2 at 37° C. for 30 min. […] Through use of InCell Analyzer (GE Healthcare), the amounts of red-colored pHrodo by neutrophils' uptake were analyzed by image analysis and quantification to observe the phagocytosis ability of neutrophils.

[6] = bacteria pre-incubated 37° C. 15 min with hHRG 1.0 μM or 5-fold-diluted human serum
[7] = compared to un-opsonized (UnOp) bacterial cells, HRG added to neutrophils
[8] = Experimental Example 3, 1.0 μM hHRG, antibodies 10 μM
[9] = Experimental Example 2, final concentrations 0.1 μM to 3.0 μM

| Molecule | opsonin (Op)-enhancing effect of pretreatment of Staphylococcus aureus (neutrophils [1]; [6]) | phagocytosis ability of neutrophils of Staphylococcus aureus opsonized with human sera on addition of HRG (neutrophils [1]; [7]) | HRG concentration at which phagocytosis ability reached a plateau (Human neutrophils [2]; Experimental Example 1, Staphylococcus aureus) | phagocytosis ability of neutrophils against Staphylococcus aureus (Human neutrophils [2]; Experimental Example 1, hHRG 0.01 μM to 3.0 μM, 30 min preincubation, 120 min with pHrodo S. aureus) | phagocytosis ability of neutrophils against Staphylococcus aureus (Human neutrophils [2]; [8]) | HRG concentration at which phagocytosis ability reached a plateau (Human neutrophils [3]; Experimental Example 1, Escherichia coli) | phagocytosis ability of neutrophils against Escherichia coli (Human neutrophils [3]; Experimental Example 1, hHRG 0.01 μM to 3.0 μM, 30 min preincubation, 60 min with pHrodo E. coli) | phagocytosis ability of neutrophils against Escherichia coli (Human neutrophils [3]; [8]) | opsonin (Op)-enhancing effect of pretreatment of Escherichia coli (neutrophils [4]; [6]) | phagocytosis ability of neutrophils of Escherichia coli opsonized with human sera on addition of HRG (neutrophils [4]; [7]) | amount of phagocytosis by neutrophils of serum-treated Zymosan (opsonin effect) (neutrophils [5]) | enhancement of phagocytosis of neutrophils against Staphylococcus aureus (Human neutrophils [2]; [9]) | enhancement of phagocytosis of neutrophils against Escherichia coli (Human neutrophils [3]; [9]) |
| --- | --- | --- | --- | --- | --- | --- | --- | --- | --- | --- | --- | --- | --- |
| B1 | did not exhibit an opsonin (Op)-enhancing effect | highly enhanced | 0.3 µM | enhanced | enhanced | 0.3 M | enhanced | enhanced | did not exhibit an opsonin (Op)-enhancing effect | highly enhanced | opsonin (Op)-enhancing effect |  |  |
| B2 |  |  |  |  |  |  |  |  |  |  |  | to the same extent as hHRG | to the same extent as hHRG |
